Results: US20080119428A1 (ONCOTHERAPY SCIENCE, published 2008)

Target: T1, EPRS (glutamyl-prolyl tRNA synthetase) (UniProt P07814 1-1512)
T1 construct: Endogenous protein in LC319 cell lysate, identified by MALDI-TOF mass spectrometry as a 180-kDa band; also called 180-kDa band
Assay: tandem immunoprecipitation (anti-FLAG M2, then anti-HA) from transfected LC319 lysate, silver-stained SDS-PAGE, MALDI-TOF MS
Experimental: Cell extracts from lung-cancer cell line LC319 transfected with the plasmids expressing N-terminal FLAG-tagged and C-terminal HA-tagged-pCAGGS-IMS-E21 (URLC8) vector or mock vector (control) were pre-cleared by incubation at 4° C. for 1 hour with 100 μL of protein G-agarose beads in a final volume of 2 ml of IP-buffer (0.5% NP-40, 50 mM Tris-HCl, 150 mM NaCl) in the presence of proteinase inhibitor. After centrifugation at 1000 rpm for 5 min at 4° C., the supernatant was incubated at 4° C. with anti-Flag M2 agarose for 2 hours. The beads were then collected by centrifugation at 5000 rpm for 2 min and washed six times with 1 ml of each immunoprecipitation buffer. Then, the washed beads were eluted by Flag-peptide (Sigma-Aldrich Co., St. Louis, Mo.). The elution was incubated at 4° C. with anti-HA agarose for 2 hours. The washed beads were resuspended in 50 μL of Laemmli sample buffer and boiled for 5 min, and the proteins were separated by 5-10% SDS PAGE gels (BIO RAD). After electrophoresis, the gels were stained with silver. Protein bands specifically found in IMS-E21 (URLC8)- transfected extracts were excised and served for matrix-assisted laser desorption/ionization-time of flight mass spectrometry (MALDI-TOF-MS) analysis (AXIMA-CFR plus, SHIMADZU BIOTECH, Kyoto, Japan). […]

T1 sequence (P07814 whole entry): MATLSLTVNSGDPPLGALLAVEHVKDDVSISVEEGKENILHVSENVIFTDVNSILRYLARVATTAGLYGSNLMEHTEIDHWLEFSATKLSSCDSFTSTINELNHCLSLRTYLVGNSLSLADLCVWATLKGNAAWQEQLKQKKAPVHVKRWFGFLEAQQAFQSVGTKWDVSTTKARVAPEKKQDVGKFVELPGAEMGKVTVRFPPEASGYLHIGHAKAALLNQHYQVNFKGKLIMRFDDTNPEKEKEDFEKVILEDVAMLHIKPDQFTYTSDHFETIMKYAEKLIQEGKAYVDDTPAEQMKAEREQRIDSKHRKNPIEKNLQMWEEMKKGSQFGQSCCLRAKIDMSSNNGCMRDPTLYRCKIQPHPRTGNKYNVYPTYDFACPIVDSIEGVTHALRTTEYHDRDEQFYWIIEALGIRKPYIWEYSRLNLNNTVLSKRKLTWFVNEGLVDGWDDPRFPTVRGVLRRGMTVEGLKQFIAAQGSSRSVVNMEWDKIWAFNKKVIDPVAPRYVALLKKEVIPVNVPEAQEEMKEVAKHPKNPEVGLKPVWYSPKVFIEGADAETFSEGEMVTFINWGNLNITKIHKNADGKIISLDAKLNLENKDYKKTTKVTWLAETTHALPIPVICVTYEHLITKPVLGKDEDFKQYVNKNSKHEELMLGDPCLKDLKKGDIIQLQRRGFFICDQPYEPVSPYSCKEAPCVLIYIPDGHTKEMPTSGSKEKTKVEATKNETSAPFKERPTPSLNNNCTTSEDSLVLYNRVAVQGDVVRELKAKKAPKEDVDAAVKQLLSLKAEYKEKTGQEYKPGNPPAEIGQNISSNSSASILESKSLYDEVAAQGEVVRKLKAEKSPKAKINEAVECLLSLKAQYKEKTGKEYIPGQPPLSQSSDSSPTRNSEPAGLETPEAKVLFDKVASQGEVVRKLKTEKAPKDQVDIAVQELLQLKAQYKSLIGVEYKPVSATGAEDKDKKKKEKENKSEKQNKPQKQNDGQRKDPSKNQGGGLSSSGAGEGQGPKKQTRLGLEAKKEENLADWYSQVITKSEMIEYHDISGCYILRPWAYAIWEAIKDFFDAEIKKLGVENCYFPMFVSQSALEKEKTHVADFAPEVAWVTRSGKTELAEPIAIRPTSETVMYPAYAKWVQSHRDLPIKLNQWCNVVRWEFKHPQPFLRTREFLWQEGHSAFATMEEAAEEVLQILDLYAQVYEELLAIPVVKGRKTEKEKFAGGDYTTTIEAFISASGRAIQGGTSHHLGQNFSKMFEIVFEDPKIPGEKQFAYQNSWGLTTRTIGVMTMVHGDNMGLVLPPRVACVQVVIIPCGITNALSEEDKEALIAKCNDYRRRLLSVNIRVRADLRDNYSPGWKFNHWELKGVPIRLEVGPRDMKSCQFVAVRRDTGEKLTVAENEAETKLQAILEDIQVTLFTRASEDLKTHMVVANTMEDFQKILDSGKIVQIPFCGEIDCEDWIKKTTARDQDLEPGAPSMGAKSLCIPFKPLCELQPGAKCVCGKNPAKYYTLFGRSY

- binding result: binds
B1: N-terminal FLAG-tagged and C-terminal HA-tagged IMS-E21 (URLC8) (enzyme)
chain: MILNSLSLCYHNKLILAPMVRVGTLPMRLLALDYGADIVYCEELIDLKMIQCKRVVNEVLSTVDFVAPDDRVVFRTCEREQNRVVFQMGTSDAERALAVARLVENDVAGIDVNMGCPKQYSTKGGMGAALLSDPDKIEKILSTLVKGTRRPVTCKIRILPSLEDTLSLVKRIERTGIAAIAVHGRKREERPQHPVSCEVIKAIADTLSIPVIANGGSHDHIQQYSDIEDFRQATAASSVMVARAAMWNPSIFLKEGLRPLEEVMQKYIRYAVQYDNHYTNTKYCLCQMLREQLESPQGRLLHAAQSSREICEAFGLGAFYEETTQELDAQQARLSAKTSEQTGEPAEDTSGVIKMAVKFDRRAYPAQITPKMCLLEWCRREKLAQPVYETVQRPLDRLFSSIVTVAEQKYQSTLWDKSKKLAEQAAAIVCLRSQGLPEGRLGEESPSLHKRKREAPDQDPGGPRAQELAQPGDLCKKPFVALGSGEESPLEGW
notes: Expressed from a pCAGGS vector in transfected LC319 cells; also called FLAG-tagged and HA-tagged-pCAGGS-IMS-E21; not shown: N-terminal FLAG tag; C-terminal HA tag
